In patent US20240343803A1 (SHANDONG SIMCERE BIOPHARMACEUTICAL, published 2024):
Substitutions are numbered along the chain they refer to.

T1: Fusion protein of extracellular domain of human TIGIT and mouse IgG2a Fc fragment (human TIGIT ECD-mFc) (human)
T1 construct: The entry includes the signal peptide (limits not recoverable) and the mouse IgG2a Fc
T1 chain: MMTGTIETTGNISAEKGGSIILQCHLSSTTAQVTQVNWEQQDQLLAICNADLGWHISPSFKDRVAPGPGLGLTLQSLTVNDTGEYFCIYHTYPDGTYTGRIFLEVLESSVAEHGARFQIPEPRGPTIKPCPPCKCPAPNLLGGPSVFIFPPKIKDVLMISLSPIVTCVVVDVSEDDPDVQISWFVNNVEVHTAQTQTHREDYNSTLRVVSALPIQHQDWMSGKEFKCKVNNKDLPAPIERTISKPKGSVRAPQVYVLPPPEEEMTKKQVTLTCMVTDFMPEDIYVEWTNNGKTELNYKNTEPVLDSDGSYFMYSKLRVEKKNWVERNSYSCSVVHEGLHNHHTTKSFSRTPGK

T2: Full-length human TIGIT on CHO-K1 cells (CHO-K1 human TIGIT) (human, UniProt Q495A1 22-244)
T2 construct: NCBI XP_024309156.1; the entry includes the signal peptide (limits not recoverable); The strain (high, medium, low) is named under assay; also called high expression strain 1D2; medium expression strain 2D10
T2 sequence: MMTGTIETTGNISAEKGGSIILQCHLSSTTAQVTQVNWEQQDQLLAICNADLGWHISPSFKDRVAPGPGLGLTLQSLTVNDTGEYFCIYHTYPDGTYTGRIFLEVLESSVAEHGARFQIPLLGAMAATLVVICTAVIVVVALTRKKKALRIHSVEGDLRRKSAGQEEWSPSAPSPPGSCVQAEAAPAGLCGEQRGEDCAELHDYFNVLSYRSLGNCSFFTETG

T3: human PVRIG-his (AcroBiosystems, Cat NO. PVG-H52H4) (human, UniProt Q6DKI7 41-171, limits assumed)
T3 construct: also called human PVRIG protein
T3 sequence (looked up): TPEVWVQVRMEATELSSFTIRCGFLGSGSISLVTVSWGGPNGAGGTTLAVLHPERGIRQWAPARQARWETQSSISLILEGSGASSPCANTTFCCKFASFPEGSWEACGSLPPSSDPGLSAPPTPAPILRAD

T4: human PVRIG-mFc protein (Acro, PVG-H5253) (human, UniProt Q6DKI7 41-171, limits assumed)
T4 construct: bought protein
T4 sequence (looked up): T3 sequence (looked up)

B1: TIGIT-002-H2L1 (antibody, V domains shown)
VH: EVQLQESGPGLVKPSETLSLTCAVSGYSITSDSWNWIRQPPGKKLEWIGYISYSGNTYYNPSLKSRVTISRDTSKNQFSLKLSSVTAADTAVYYCARLDFSNYGGAVDYWGQGTTVTVSS
VL: DIVMTQTPLSLSVTPGQPASISCKASQNVRTAVAWYLQKPGQSPQLMIYSASYRYTGVPDRFSGSGSGTDFTLKISRVEAEDVGVYYCQQYYTTPWTFGGGTKVEIK
notes: Humanized anti-TIGIT antibody
B2: TIGIT-002-H2L2 (antibody, V domains shown)
VH: B1 VH
VL: B1 VL with L37Q
notes: Humanized anti-TIGIT antibody
B3: TIGIT-002-H1L2 (antibody, V domains shown)
VH: B1 VH with K44G
VL: B1 VL with L37Q
notes: Humanized anti-TIGIT antibody
B4: TIGIT-002-H4L1 (antibody, V domains shown)
VH: B1 VH with W47Y
VL: B1 VL
notes: Humanized anti-TIGIT antibody
B5: TIGIT-002-H1L1 (antibody, V domains shown)
VH: B1 VH with K44G
VL: B1 VL
notes: Humanized anti-TIGIT antibody
B6: TIGIT-002-H4L2 (antibody, V domains shown)
VH: B1 VH with W47Y
VL: B1 VL with L37Q
notes: Humanized anti-TIGIT antibody
B7: TIGIT-002-H3L2 (antibody, V domains shown)
VH: B1 VH with I48M, V67I
VL: B1 VL with L37Q
notes: Humanized anti-TIGIT antibody
B8: TIGIT-002-H3L1 (antibody, V domains shown)
VH: B1 VH with I48M, V67I
VL: B1 VL
notes: Humanized anti-TIGIT antibody
B9: PVRIG-A11 (Fc fusion)
chain: QLQLVESGGGLVQPGGSLRLSCAASGFTDDYYAIGWFRQAPGKEREGVSCISGSGGSTNYEDSVKGRFAISRDNAKNMVYLQMNDLKPEDTAVYYCAADPFWSAPCTGHNDRYFDVWGQGTLVTVSS
notes: heavy chain antibody VHH-hinge-CH2-CH3, human IgG1 constant part; not shown: human IgG1 hinge-CH2-CH3

Target: T1, Fusion protein of extracellular domain …
Experiment: ELISA, human TIGIT ECD-mFc
Protocol: (§1) After discarding the coating solution, the plate was added with 5% skim milk powder (Sangon Biotech, CAT #A600669-0250)-PBS, 250 μL/well, and incubated at 37° C. for 2-4 hours. […] The enzyme-labeled plate was then washed with 0.05% Tween 20-PBS for 3 times on the Microplate Washer, added with tested antibodies diluted to 13 nM with 1% BSA (diluted by 3-fold serial dilution for 12 concentration points), 50 μL/well, and incubated at 37° C. for 1.5-2 hours. The plate was washed with 0.05% Tween 20-PBS for 3 times on the Microplate Washer, then added with HRP enzyme-labeled antibodies (Merck, CAT #AP113P) diluted with 1% BSA (Sangon Biotech, CAT #A500023-0100)-PBS at a dilution ratio of 1:5000, 50 μL/well, and incubated at 37° C. for 1 hour. After washing 3 times with 0.05% Tween 20-PBS on the Microplate Washer, the plate was added with TMB chromogenic solution (KPL, CAT #52-00-03), 50 μL/well, and incubated at room temperature for 7-10 minutes. 1M HCL, 50 μL/well, was then added into the plate to terminate the reaction, and the OD450 nm was read by a microplate reader (Biotek, Powerwave HT). […] (b) The binding activity of anti-TIGIT chimeric antibodies to CHO-K1 human TIGIT (cells with high, medium and low expression levels) and CHO-KI cynomolgus monkey TIGIT detected by FACS.
(§2) The affinity of the above humanized antibodies with human TIGIT ECD-His is detected by BIAcore, and with reference to the methods of Example 4 (a), (b), and (d), the binding activity of the above humanized antibodies to human TIGIT ECD-mFc, CHO-K1 human TIGIT, CHO-K1 cynomolgus monkey TIGIT and cynomolgus monkey TIGIT ECD-mFc, and the effect of the humanized antibodies blocking the binding between human TIGIT ECD-mFc and CHO-K1 CD155 are detected, the results are shown in Table 18.

EC50 [nM] | Binder
0.0188 | B1
0.0222 | B2
0.0158 | B3
0.0164 | B4
0.0155 | B5
0.0179 | B6
0.017 | B7
0.012 | B8

target: T5, Fusion protein of extracellular domain of cynomolgus monkey TIGIT and mouse IgG2a Fc fragment (cynomolgus … (cynomolgus monkey)); experiment: ELISA, cynomolgus monkey TIGIT ECD-mFc
T5 construct: The entry includes the signal peptide (limits not recoverable) and the mouse IgG2a Fc
Protocol: as §1, §2

T5 sequence (chain, as listed by the source limits assumed): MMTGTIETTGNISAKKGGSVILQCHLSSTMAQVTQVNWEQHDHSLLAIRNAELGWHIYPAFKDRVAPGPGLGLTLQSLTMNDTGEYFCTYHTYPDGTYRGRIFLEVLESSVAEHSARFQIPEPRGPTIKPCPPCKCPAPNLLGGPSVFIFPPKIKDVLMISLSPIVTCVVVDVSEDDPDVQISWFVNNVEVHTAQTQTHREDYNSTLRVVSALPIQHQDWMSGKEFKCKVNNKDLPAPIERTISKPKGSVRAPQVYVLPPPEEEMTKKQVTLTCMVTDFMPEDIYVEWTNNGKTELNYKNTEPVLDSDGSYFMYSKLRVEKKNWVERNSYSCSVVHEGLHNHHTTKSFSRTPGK

EC50 [nM] | Binder
0.0877 | B1
0.0554 | B2
0.0811 | B3
0.0206 | B4
0.209 | B5
0.0254 | B6
0.0218 | B7
0.0253 | B8

target: T6, Full-length cynomolgus monkey TIGIT on CHO-K1 cells (CHO-K1 cynomolgus monkey TIGIT) (cynomolgus monkey); experiment: cell binding, CHO-K1 cynomolgus monkey TIGIT
T6 construct: NCBI XP_015300911.1
Protocol: (§3) The collected cells were washed once with PBS (Hyclone, CAT #SH30256), resuspended to 2×10⁵/50 μL with 1% BSA-PBS. The antibodies were diluted to 80 nM with 1% BSA-PBS (diluted by 3-fold serial dilution for 12 concentration points). The 50 μL cells were then mixed with 50 μL diluted antibodies, and then incubated at 4° C. for 60 minutes. […] After washing twice with PBS, the cell samples were resuspended with 1% BSA-PBS, 100 μL/well and then analyzed by flow cytometry (BD, Canto II). […] [0298] (c) The effect of anti-TIGIT chimeric antibodies blocking the interaction between Bio-CD155-His and CHO-K1 human TIGIT high expression cell strains detected by FACS
as §2

T6 sequence (chain, as listed by the source limits assumed): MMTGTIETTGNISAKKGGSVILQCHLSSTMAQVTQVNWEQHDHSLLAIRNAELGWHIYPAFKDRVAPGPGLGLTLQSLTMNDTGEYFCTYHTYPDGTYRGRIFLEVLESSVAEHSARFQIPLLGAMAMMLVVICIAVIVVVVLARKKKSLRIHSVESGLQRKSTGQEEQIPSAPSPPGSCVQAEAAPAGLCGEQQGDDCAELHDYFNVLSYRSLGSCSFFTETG

EC50 [nM] | Binder
0.181 | B1
0.12 | B2
0.221 | B3
0.0543 | B4
0.187 | B5
0.0474 | B6
0.113 | B7
0.232 | B8

target: T7, Fusion protein of extracellular domain of human TIGIT and human IgG1 Fc fragment (human TIGIT ECD-hFc) (human); experiment: blocking of TIGIT ECD-hFc binding to CHO-K1 CD155 cells
T7 construct: The entry includes the signal peptide (limits not recoverable) and the human IgG1 Fc
Summary of the method: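 Cell-based ELISA on CHO-K1 CD155 cells, cultured overnight, fixed and blocked with 5% skim milk-PBS. Antibodies were premixed for 0.5 h with human TIGIT ECD-hFc (working concentration 30 ng/mL), then added and held at 37° C for 1.5-2 h. Bound TIGIT was detected with HRP secondary antibody (1:5000, 37° C, 1 h) and TMB, read as OD450 nm. IC50 came from the inhibition curves.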

T7 sequence (chain, as listed by the source limits assumed): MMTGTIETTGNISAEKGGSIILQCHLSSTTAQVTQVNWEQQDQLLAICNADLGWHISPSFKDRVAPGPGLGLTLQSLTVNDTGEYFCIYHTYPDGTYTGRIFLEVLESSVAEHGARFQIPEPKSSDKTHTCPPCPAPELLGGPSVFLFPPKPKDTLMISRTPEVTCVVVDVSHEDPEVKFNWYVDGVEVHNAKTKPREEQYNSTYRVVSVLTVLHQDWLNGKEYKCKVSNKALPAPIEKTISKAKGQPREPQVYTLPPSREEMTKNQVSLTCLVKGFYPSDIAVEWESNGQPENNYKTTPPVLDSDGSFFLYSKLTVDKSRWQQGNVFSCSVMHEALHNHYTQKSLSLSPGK

IC50 [nM] | Binder
0.646 | B1
0.56 | B2
0.421 | B3
0.445 | B4
0.526 | B5
0.44 | B6
0.394 | B7
0.459 | B8

target: T2, Full-length human TIGIT on CHO-K1 cells …; experiment: cell binding, CHO-K1 human TIGIT high expression strain
Protocol: as §3, §2

EC50 [nM] | Binder
0.0468 | B1
0.0215 | B2
0.0167 | B3
0.0253 | B4
0.0201 | B5
0.0294 | B6
0.0329 | B7
0.0204 | B8

target: T3, human PVRIG-his (AcroBiosystems, Cat …); experiment: SPR (BIAcore), antibody captured on Protein A chip, human PVRIG-His analyte
Protocol: Biacore was used to detect the specific binding between anti-PVRIG antibody and human PVRIG protein. Protein A chip was used in the BIAcore assay. The time required for the chip to capture the diluted antibody and saturate the binding antigen to reach Rₘₐₓ (Maximum binding capacity, 50 RU) was measured by manual run. […] The affinity of antibody for antigen was measured by multi-cycle kinetics. In each cycle, the antibodies were injected prior to the injection of gradient concentraions of PVRIG proteins allowing the occurrence of antibody-antigen association and dissociation After each cycle, the Protein A chip was regenerated by Glycine, pH 1.5 (to remove the proteins on the chip). The affinity of antibody for antigen was calculated by BIAcore T200 analysis software.

Kd [nM] | koff [s⁻¹] | kon [M⁻¹ s⁻¹] | Binder
0.106 | 0.00338 | 3.18e+07 | B9

target: T4, human PVRIG-mFc protein (Acro, …); experiment: FACS competition, PVRIG-mFc binding to CHO-K1-CD112 cells, competitor CD112 on cells
Protocol: A working solution of human PVRIG-mFc protein (Acro, PVG-H5253) prepared with staining buffer, 1 μg/mL (four-fold concentration), was added into a 96-well plate (50 μL PVRIG-mFc working solution per well). […] The diluted antibodies were added to the well containing 50 μL of PVRIG-mFc. The plate was placed on a microplate shaker at 400 rpm for 1 minute to fully mix the antibodies and PVRIG-mFc proteins, and then incubated at 4° C. for 30 minutes. After the incubation, the cell suspension prepared above (100 μL) was added into the wells, gently mixed with the pipette tip and incubated at 4° C. for 30 minutes. After the incubation, the cells were washed twice with staining buffer (200 μL per well) and centrifuged at 350×g for 5 minutes to discard the supernatant. The PE goat anti-mouse IgG Fc antibody (Biolegend, 405337) was diluted 250 times with staining buffer, added into the washed wells (100 μL per well), mixed well, and stained at 4° C. for 30 minutes. After staining, the cells were washed twice with staining buffer, finally resuspended with 200 μL staining buffer and analyzed by flow cytometry (BD, Canto II). The weaker the fluorescence signal, the stronger the ability of the antibodies blocks the binding of CHO-K1 human CD112 cells to the PVRIG-mFc protein. An antibody binding curve was drawn with concentration of antibodies as the abscissa and the corresponding Mean Fluorescence Intensity (MFI) as the ordinate. The IC50 value of the antibodies and the AUC value of the binding curve were calculated by using a Four Parameter Logistic Fit (GraphPadPrism9). The smaller the IC50 value and AUC value, the stronger the ability of the antibodies competes with CHO-K1-CD112 cells to bind to human PVRIG-mFc protein. […] […] The smaller the percentage value, the stronger the blocking ability of the antibodies.

% AUC to COM701-hIgG4 [%] | % AUC to SRF813-hIgG1 [%] | % IC50 to COM701-hIgG4 [%] | % IC50 to SRF813-hIgG1 [%] | Binder
78 | 58.9 | 62.8 | 64.1 | B9
